Results: paper PMC11336944, “CWF19L2 is Essential for Male Fertility and Spermatogenesis by Regulating Alternative Splicing” (Advanced Science, 2024)

Biological target: T1, PRPF8 (mouse (endogenous in testis), UniProt Q99PV0 1-2335)
T1 construct: PRPF8 (pre-mRNA-processing-splicing factor 8), mouse, endogenous in testis and sorted germ cells; also called spliceosome skeleton marker PRPF8; source: endogenous, PD10 WT mouse testis extract; endogenous, lysate of sorted germ cells from Cwf19l2‐SKO and control mice
Assay: co-IP; PRPF8 antibody immunoprecipitation from sorted germ cells of Cwf19l2-SKO mice (CWF19L2 deleted in germ cells), immunoblotting, bands quantified against control mice; IgG as negative control
Conditions: partners not purified

B1: PRPF43 (natural protein, mouse (endogenous in testis), UniProt O35286 1-795, looked up)
chain: MSKRHRLDLGEDYPSGKKRAGTDGKDRERDRDREDRSKDRDRERDRGDREREREKEKEKELRASTNAMLISAGLPPLKASHSAHSTHSAHSTHSTHSAHSTHTGHTGHTSLPQCINPFTNLPHTPRYYDILKKRLQLPVWEYKDRFTDILVRHQSFVLVGETGSGKTTQIPQWCVEYMRSLPGPKRGVACTQPRRVAAMSVAQRVADEMDVMLGQEVGYSIRFEDCSSAKTILKYMTDGMLLREAMNDPLLERYGVIILDEAHERTLATDILMGVLKEVVRQRSDLKVIVMSATLDAGKFQIYFDNCPLLTIPGRTHPVEIFYTPEPERDYLEAAIRTVIQIHMCEEEEGDLLLFLTGQEEIDEACKRIKREVDDLGPEVGDIKIIPLYSTLPPQQQQRIFEPPPPKKQNGAIGRKVVVSTNIAETSLTIDGVVFVIDPGFAKQKVYNPRIRVESLLVTAISKASAQQRAGRAGRTRPGKCFRLYTEKAYKTEMQDNTYPEILRSNLGSVVLQLKKLGIDDLVHFDFMDPPAPETLMRALELLNYLAALNDDGDLTELGSMMAEFPLDPQLAKMVIASCDYNCSNEVLSITAMLSVPQCFVRPTEAKKAADEAKMRFAHIDGDHLTLLNVYHAFKQNHESVQWCYDNFINYRSLMSADNVRQQLSRIMDRFNLPRRSTDFTSRDYYINIRKALVTGYFMQVAHLERTGHYLTVKDNQVVQLHPSTVLDHKPEWVLYNEFVLTTKNYIRTCTDIKPEWLVKIAPQYYDMSNFPQCEAKRQLDRIIAKLQSKEYSQY
notes: PRPF43 / PRP43 as printed, mouse, endogenous in testis and sorted germ cells; also called PRP43; ILS complex marker PRPF43; source: endogenous, PD10 WT mouse testis extract; endogenous, lysate of sorted germ cells from Cwf19l2‐SKO and control mice
- fold PRPF43 in the PRPF8 co-IP, control over Cwf19l2-SKO, normalised to PRPF8: 1.5 times
